Measurements published in article PMC8096265, “A functional LSD1 coregulator screen reveals a novel transcriptional regulatory cascade connecting R-loop homeostasis with epigenetic regulation” (Nucleic Acids Research, 2021).
Ends that are not written are not given here.

Target: T1, GST-DDX19A (recombinant full-length DEAD-box helicase 19A) (UniProt Q9NUU7 1-478)
T1 construct: DEAD-box helicase 19A (DDX19A), expressed from pGEX-DDX19A; Printed both as GST-DDX19A and as DDX19A-GST; no cleavage of GST is described, and the array is detected by anti-GST. pGEX vectors usually put GST at the N-terminus (surmise); also called DDX19A-GST; recombinant DDX19A
T1 sequence (looked up): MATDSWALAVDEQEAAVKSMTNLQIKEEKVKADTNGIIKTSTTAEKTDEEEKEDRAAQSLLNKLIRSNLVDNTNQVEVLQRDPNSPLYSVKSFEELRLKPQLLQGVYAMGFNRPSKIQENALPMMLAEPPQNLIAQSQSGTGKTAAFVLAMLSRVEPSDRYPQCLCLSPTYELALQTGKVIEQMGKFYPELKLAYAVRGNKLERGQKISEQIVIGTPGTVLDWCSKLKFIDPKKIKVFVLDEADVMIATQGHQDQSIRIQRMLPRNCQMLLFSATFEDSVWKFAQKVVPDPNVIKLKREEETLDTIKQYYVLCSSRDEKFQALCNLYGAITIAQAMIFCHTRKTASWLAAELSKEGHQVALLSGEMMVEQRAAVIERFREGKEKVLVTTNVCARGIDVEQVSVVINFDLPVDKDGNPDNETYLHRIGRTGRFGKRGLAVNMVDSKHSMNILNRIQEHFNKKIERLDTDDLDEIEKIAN
Test: fluorescence polarisation; fluorescence anisotropy; 50 nM FITC-labelled H3.1 (16-34) peptide in 20 mM HEPES pH 7.5, 100 mM KCl, 0.1 mM DTT, 10% glycerol; DDX19A added stepwise; 23°C; fit to a simple binding equilibrium
Conditions: both partners purified

- Kd: > 1 µM
B1: FITC-labelled H3.1 peptide (residues 16-34), unmodified (peptide)
chain: PRKQLATKAARKSAPATGG
modifications: also: FITC label, position not given here
